{
  "source": "patent US20110263454A1",
  "about": "“Methods of Identifying Functional Characteristics of Promoters, Transcription Modifying Proteins and Transcription Modulating Agents” (Salk Institute for Biological Studies, priority 2008, published 2011)",
  "molecules": {"B1": {"name": "RVRb: Rev-Erb β (NR1D2, alternative name RVR), cDNA driver (protein, UniProt Q14995 1-579, looked up)", "Nuclear receptor subfamily 1 …": "MEVNAGGVIAYISSSSSASSPASCHSEGSENSFQSSSSSVPSSPNSSNSDTNGNPKNGDLANIEGILKNDRIDCSMKTSKSSAPGMTKSHSGVTKFSGMVLLCKVCGDVASGFHYGVHACEGCKGFFRRSIQQNIQYKKCLKNENCSIMRMNRNRCQQCRFKKCLSVGMSRDAVRFGRIPKREKQRMLIEMQSAMKTMMNSQFSGHLQNDTLVEHHEQTALPAQEQLRPKPQLEQENIKSSSPPSSDFAKEEVIGMVTRAHKDTFMYNQEQQENSAESMQPQRGERIPKNMEQYNLNHDHCGNGLSSHFPCSESQQHLNGQFKGRNIMHYPNGHAICIANGHCMNFSNAYTQRVCDRVPIDGFSQNENKNSYLCNTGGRMHLVCPMSKSPYVDPHKSGHEIWEEFSMSFTPAVKEVVEFAKRIPGFRDLSQHDQVNLLKAGTFEVLMVRFASLFDAKERTVTFLSGKKYSVDDLHSMGAGDLLNSMFEFSEKLNALQLSDEEMSLFTAVVLVSADRSGIENVNSVEALQETLIRALRTLIMKNHPNEASIFTKLLLKLPDLRSLNNMHSEELLAFKVHP"}, "B2": {"name": "RVRa: Rev-Erb α (NR1D1), cDNA driver (protein, UniProt P20393 1-614, looked up)", "Nuclear receptor subfamily 1 …": "MTTLDSNNNTGGVITYIGSSGSSPSRTSPESLYSDNSNGSFQSLTQGCPTYFPPSPTGSLTQDPARSFGSIPPSLSDDGSPSSSSSSSSSSSSFYNGSPPGSLQVAMEDSSRVSPSKSTSNITKLNGMVLLCKVCGDVASGFHYGVHACEGCKGFFRRSIQQNIQYKRCLKNENCSIVRINRNRCQQCRFKKCLSVGMSRDAVRFGRIPKREKQRMLAEMQSAMNLANNQLSSQCPLETSPTQHPTPGPMGPSPPPAPVPSPLVGFSQFPQQLTPPRSPSPEPTVEDVISQVARAHREIFTYAHDKLGSSPGNFNANHASGSPPATTPHRWENQGCPPAPNDNNTLAAQRHNEALNGLRQAPSSYPPTWPPGPAHHSCHQSNSNGHRLCPTHVYAAPEGKAPANSPRQGNSKNVLLACPMNMYPHGRSGRTVQEIWEDFSMSFTPAVREVVEFAKHIPGFRDLSQHDQVTLLKAGTFEVLMVRFASLFNVKDQTVMFLSRTTYSLQELGAMGMGDLLSAMFDFSEKLNSLALTEEELGLFTAVVLVSADRSGMENSASVEQLQETLLRALRALVLKNRPLETSRFTKLLLKLPDLRTLNNMHSEKLLSFRVDAQ"}, "B3": {"name": "RORg: RAR-related Orphan Receptor γ (NR1F3), cDNA driver (protein, UniProt P51449 1-518, looked up)", "Nuclear receptor ROR-gamma": "MDRAPQRQHRASRELLAAKKTHTSQIEVIPCKICGDKSSGIHYGVITCEGCKGFFRRSQRCNAAYSCTRQQNCPIDRTSRNRCQHCRLQKCLALGMSRDAVKFGRMSKKQRDSLHAEVQKQLQQRQQQQQEPVVKTPPAGAQGADTLTYTLGLPDGQLPLGSSPDLPEASACPPGLLKASGSGPSYSNNLAKAGLNGASCHLEYSPERGKAEGRESFYSTGSQLTPDRCGLRFEEHRHPGLGELGQGPDSYGSPSFRSTPEAPYASLTEIEHLVQSVCKSYRETCQLRLEDLLRQRSNIFSREEVTGYQRKSMWEMWERCAHHLTEAIQYVVEFAKRLSGFMELCQNDQIVLLKAGAMEVVLVRMCRAYNADNRTVFFEGKYGGMELFRALGCSELISSIFDFSHSLSALHFSEDEIALYTALVLINAHRPGLQEKRKVEQLQYNLELAFHHHLCKTHRQSILAKLPPKGKLRSLCSQHVERLQIFQHLHPIVVQAAFPPLYKELFSTETESPVGLSK"}},
  "data": [
    {"system": "hIRF7 promoter", "assay": "NHR-promoter luciferase screen, hIRF7 promoter", "format": "cell-based, human", "conditions": "IRF7 promoter reporter; HR without or with its ligand; relative to control", "experimental": "(§1) The use, feasibility, and reproducibility of the functional NHR-promoter screen in a 48-well format have been tested validated. Briefly, there were co-expressed 50 ng of each NHR/NHR homodimer or NHR/RXR heterodimer with 100 ng promoter/luciferase construct and 50 ng of LacZ (as a control for transfection efficiency) in CV-1 cells using Fugene HD (Roche) as a transfection reagent (alternatively or additionally, a CMV-YFP construct can be used as a transfection control). Each of the nuclear hormone receptors that were used in these experiments was cloned into a pcDNA3.1 vector and comprised a C-terminally linked V5H6 tag. Twenty-four hours after transfection, appropriate ligands were added, where applicable, (see Table 5 for various ligands and concentrations and after 48 hrs, samples were assayed for luciferase and LacZ activity. To measure for luciferase activity 15 ul of sample was added to 30 ul of luciferase buffer (20 mM tricine, 1.07 mM MgCarbonate, 2.67 mM MgSulfate, 0.1 mM Naz-EDTA, 5 mM DTT, 5 mM ATP, 0.15 mg/ml CoA, 0.5 mM Luciferin), mixed briefly, and run in a Perkin Elmer Victor 5 luminometer. Thus, the functional NHR-promoter screen was used to observe the transcriptional activity of 29 promoters from various physiological pathways including inflammation, lipid and sugar metabolism, cholesterol transport, xenobiotic metabolism, and circadian rhythm.\n(§2) The promoters that facilitate transcription of the indicated gene products that were tested using the protocols described herein are listed in the first row of the table. The nuclear hormone receptors and, where applicable, ligands that were assayed for their transcriptional effects on the promoters are listed in the first column of the table. The data represent the luciferase activity of each sample normalized to both the lacZ activity of that sample and to a control, e.g., no NHR or ligand, as customary in the art. As described previously, these normalizations allow the transcriptional activity of each reporter cell to be compared to other samples.\n(§3) Tables 7-40 show the transcriptional effects of the hormone receptors, and, where applicable, ligands (orphan receptors are screened without ligand), on each individual promoter. […] The control data of each table are shown in their last rows.", "values": [
      {"molecule": "B1", "Normalized Luc. act., normalized to control": 1.9},
      {"molecule": "B2", "Normalized Luc. act., normalized to control": 1.2},
      {"molecule": "B3", "Normalized Luc. act., normalized to control": 1.7}
    ]},
    {"system": "hIRF7 promoter", "assay": "NHR-promoter luciferase screen, hIRF7 promoter", "format": "cell-based, human", "conditions": "IRF7 promoter reporter; hormone receptor (HR) without or with its ligand", "experimental": "as §1, §2, §3", "values": [
      {"molecule": "B1", "Luc. act., normalized to lacZ": 50.4},
      {"molecule": "B2", "Luc. act., normalized to lacZ": 32.6},
      {"molecule": "B3", "Luc. act., normalized to lacZ": 44.4}
    ]},
    {"system": "hIRF7 promoter", "assay": "NHR-promoter luciferase screen, hIRF7 promoter", "format": "cell-based, human", "conditions": "transcription factor +/- ligand; control = 1.00", "experimental": "as §1, §2, §3", "values": [
      {"molecule": "B1", "hIRF7 promoter reporter activity": 1.91},
      {"molecule": "B2", "hIRF7 promoter reporter activity": 1.24},
      {"molecule": "B3", "hIRF7 promoter reporter activity": 1.69}
    ]},
    {"system": "mADRP promoter", "assay": "NHR-promoter luciferase screen, mADRP promoter", "format": "cell-based, mouse", "conditions": "ADRP promoter; HR/ligand component", "experimental": "as §1, §2, §3", "values": [
      {"molecule": "B1", "Luc. act., normalized to lacZ": 353.2, "Normalized Luc. act., normalized to control": 0.7},
      {"molecule": "B2", "Luc. act., normalized to lacZ": 522.2, "Normalized Luc. act., normalized to control": 1.0},
      {"molecule": "B3", "Luc. act., normalized to lacZ": 929.8, "Normalized Luc. act., normalized to control": 1.9}
    ]},
    {"system": "mADRP promoter", "assay": "NHR-promoter luciferase screen, mADRP promoter", "format": "cell-based, mouse", "conditions": "transcription factor +/- ligand; control = 1.00", "experimental": "as §1, §2, §3", "values": [
      {"molecule": "B1", "mADRP promoter reporter activity": 0.71},
      {"molecule": "B2", "mADRP promoter reporter activity": 1.05},
      {"molecule": "B3", "mADRP promoter reporter activity": 1.87}
    ]},
    {"system": "SREBP1c promoter", "assay": "NHR-promoter luciferase screen, SREBP1c promoter", "format": "cell-based, mouse", "conditions": "SREBP1c promoter; HR component without or with ligand", "experimental": "as §1, §2, §3", "values": [
      {"molecule": "B1", "Luc. act., normalized to lacZ": 721.7, "Normalized Luc. act., normalized to control": 2.2},
      {"molecule": "B2", "Luc. act., normalized to lacZ": 574.4, "Normalized Luc. act., normalized to control": 1.8},
      {"molecule": "B3", "Luc. act., normalized to lacZ": 644.8, "Normalized Luc. act., normalized to control": 2.0}
    ]},
    {"system": "SREBP1c promoter", "assay": "NHR-promoter luciferase screen, SREBP1c promoter", "format": "cell-based, mouse", "conditions": "transcription factor +/- ligand; control = 1.00", "experimental": "as §1, §2, §3", "values": [
      {"molecule": "B1", "mSREBP1-c promoter reporter activity": 2.24},
      {"molecule": "B2", "mSREBP1-c promoter reporter activity": 1.78},
      {"molecule": "B3", "mSREBP1-c promoter reporter activity": 2.00}
    ]}
  ]
}
